Experimental data reported in patent publication US9187525B2, “Methods of treating ophthalmic diseases using NPR-B agonists” (Shire Orphan Therapies GmbH, dated 2015).
Numbered stars: 1 amine (or outer) side, 2 acyl side, 3 side chain; on linkers, the order of the positions; unused ones are H or OH. Square brackets hold non-standard residues; d marks the D form. Ends that are not written are not given here. * marks the point of attachment. aFL = (S)-2-((R)-3-amino-2-oxopyrrolidin-1-yl)-3-phenylpropanoic acid, O=C1[C@H](N[*:1])CCN1[C@@H](Cc1ccccc1)C(=O)[*:2]; afL = (R)-2-((R)-3-amino-2-oxopyrrolidin-1-yl)-3-phenylpropanoic acid, O=C1[C@H](N[*:1])CCN1[C@H](Cc1ccccc1)C(=O)[*:2]; 779 = 2-((1S,2R,4R)-bicyclo[2.2.1]heptan-2-yl)acetic acid, O=C(C[C@H]1C[C@@H]2CC[C@H]1C2)*; Eal = rac-imidazolidine-2-carboxylic acid, O=C(C1N([*:1])CCN1[*:3])[*:2]; Pro(trans-4-NH2) = O=C([C@@H]1C[C@@H](N[*:3])CN1[*:1])[*:2]; 785 = 2-phenethyl-benzoic acid, O=C(c1ccccc1CCc1ccccc1)*; Sni = (S)-nipecotic acid, O=C([C@H]1CCCN([*:1])C1)[*:2]; Gly(NCH2CH2Ph) = O=C(O)CNCCc1ccccc1; Hydrocinnamoyl = O=C(CCc1ccccc1)*; Hyp = O=C(O)[C@@H]1C[C@@H](O)CN1; ES‑283‑049 = not defined here; NMeL = CN[C@@H](CC(C)C)C(=O)O; Nle = CCCC[C@H](N)C(=O)O; Nphe = O=C(O)CNCc1ccccc1; Octanoyl = CCCCCCCC(=O)*; Thz = O=C(O)[C@@H]1CSCN1; Che = not defined here; leu = not defined here; Occ = octanoic acid

T1: natriuretic peptide receptor-B (human)
T1 chain: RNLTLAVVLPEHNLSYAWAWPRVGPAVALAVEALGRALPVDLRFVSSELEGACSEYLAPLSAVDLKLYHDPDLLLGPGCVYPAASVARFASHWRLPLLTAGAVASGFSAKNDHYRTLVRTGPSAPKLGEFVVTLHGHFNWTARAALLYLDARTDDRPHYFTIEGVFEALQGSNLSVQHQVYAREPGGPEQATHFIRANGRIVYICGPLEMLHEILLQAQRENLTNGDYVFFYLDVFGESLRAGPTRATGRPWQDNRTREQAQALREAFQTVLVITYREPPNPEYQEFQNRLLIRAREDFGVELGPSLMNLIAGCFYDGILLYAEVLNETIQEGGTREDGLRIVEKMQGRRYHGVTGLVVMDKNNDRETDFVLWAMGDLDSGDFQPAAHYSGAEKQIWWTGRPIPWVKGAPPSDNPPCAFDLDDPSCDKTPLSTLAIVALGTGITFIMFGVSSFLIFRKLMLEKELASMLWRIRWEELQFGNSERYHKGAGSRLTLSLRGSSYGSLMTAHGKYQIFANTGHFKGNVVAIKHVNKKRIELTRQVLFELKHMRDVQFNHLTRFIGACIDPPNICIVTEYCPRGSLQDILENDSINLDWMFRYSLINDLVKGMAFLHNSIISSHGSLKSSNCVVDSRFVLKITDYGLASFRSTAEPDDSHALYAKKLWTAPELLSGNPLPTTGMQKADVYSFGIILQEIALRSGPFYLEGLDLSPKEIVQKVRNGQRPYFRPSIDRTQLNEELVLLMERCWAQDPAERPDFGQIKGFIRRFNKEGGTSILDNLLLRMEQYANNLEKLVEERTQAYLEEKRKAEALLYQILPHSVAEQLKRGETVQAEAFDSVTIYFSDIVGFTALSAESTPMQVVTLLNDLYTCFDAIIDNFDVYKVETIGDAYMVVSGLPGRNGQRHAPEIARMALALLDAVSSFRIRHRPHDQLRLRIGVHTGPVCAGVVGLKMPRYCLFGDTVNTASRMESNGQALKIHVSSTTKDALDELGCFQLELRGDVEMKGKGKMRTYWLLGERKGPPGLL


Molecular target: T1, natriuretic peptide receptor-B
Assay: cell-based or functional assay

Binder	EC50 group, cGMP in GTM-3 cells
[Occ][Sni]F[leu]L[Hyp][NMeL]EP[Che] (reading uncertain; also: printed as Occ-Sni-Phe-leu-Leu-Hyp-Nml-Glu-Pro-Che) [JAL-1652]	≤ 5 µM
[785][Sni]F[leu]L[Hyp][NMeL]DRI-NH2 (reading uncertain; also: printed as 785-Sni-Phe-leu-Leu-Hyp-Nml-Asp-Arg-Ile-NH2) [JAL-1660]	≤ 15 µM
[Occ][Sni]F[leu][Nle][Hyp][NMeL]DP[Che] (reading uncertain; also: printed as Occ-Sni-Phe-leu-Nle-Hyp-Nml-Asp-Pro-Che) [JAL-1657]	≤ 1 µM
[Occ][Sni][Nphe][leu]L[Hyp][NMeL]DRI-NH2 (reading uncertain; also: printed as Occ-Sni-NPhe-leu-Leu-Hyp-Nml-Asp-Arg-Ile-NH2) [JAL-1634]	≤ 15 µM
[Occ][Sni]F[leu]L[Pro(trans-4-NH2)][NMeL]VP[Che] (reading uncertain; also: printed as Occ-Sni-Phe-leu-Leu-Tap-Nml-Val-Pro-Che) [JAL-1654]	≤ 1 µM
[Occ][aFL][leu]L[Hyp][NMeL]DRI-NH2 (reading uncertain; also: printed as Occ-(aFL)-leu-Leu-Hyp-Nml-Asp-Arg-Ile-NH2) [JAL-1636]	≤ 5 µM
[Occ][Sni]F[leu]L[Hyp][NMeL]D[ES‑283‑049] (reading uncertain; also: printed as Occ-Sni-Phe-leu-Leu-Hyp-Nml-Asp-(ES-283-049)) [JAL-1646]	≤ 5 µM

The remaining lines, values ahead:

EC50 group, cGMP in GTM-3 cells	Binder
≤ 5 µM	[779][Sni]F[leu]L[Hyp][NMeL]DRI-NH2 (reading uncertain; also: printed as 779-Sni-Phe-leu-Leu-Hyp-Nml-Asp-Arg-Ile-NH2) [JAL-1659]
≤ 5 µM	[Hydrocinnamoyl][Sni]F[leu]L[Hyp][NMeL]DRI-NH2 (reading uncertain; also: printed as 1281-Sni-Phe-leu-Leu-Hyp-Nml-Asp-Arg-Ile-NH2) [JAL-1661]
≤ 5 µM	[Occ][afL][leu]L[Hyp][NMeL]DRI-NH2 (reading uncertain; also: printed as Occ-(afL)-leu-Leu-Hyp-Nml-Asp-Arg-Ile-NH2) [JAL-1637]
≤ 15 µM	[Occ][Sni][Gly(NCH2CH2Ph)][leu]L[Hyp][NMeL]DRI-NH2 (reading uncertain; also: printed as Occ-Sni-NHfe-leu-Leu-Hyp-Nml-Asp-Arg-Ile-NH2) [JAL-1635]
≤ 1 µM	[Occ][Sni]F[leu]L[Hyp][NMeL]D[Thz][Che] (reading uncertain; also: printed as Occ-Sni-Phe-leu-Leu-Hyp-Nml-Asp-Eaz-Che) [JAL-1638]
≤ 5 µM	[Occ][Sni]F[leu]L[Hyp][NMeL]D[Eal][Che] (reading uncertain; also: printed as Occ-Sni-Phe-leu-Leu-Hyp-Nml-Asp-Eal-Che) [JAL-1639]
≤ 5 µM	Octanoyl-[dA][dA]FGLKLDRI-NH2 [JAL-0701]
